Assay results from the supplement of paper PMC10567573.

B1: SCNN1D (parent)
chain: IRVMVHGRNHTPFLGHHSFSVRPG
B2: CSNK1G1 (parent)
chain: GSLPWQGLKADTLKERYQKIGDTK

Variants of: B1
Experiment: protein stability index of a GFP-peptide fusion (GPS, HEK-293T) (PSI 1-6); higher = more stable
Conditions: c terminus: a fixed tail appended
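Also: lentivirally expressed fusions sorted by FACS into six bins by GFP to DsRed ratio, PSI derived from sequencing read proportions per bin multiplied by bin number.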

Row | Variant | protein stability index
1 | V3T | 2.2
2 | R8A | 2.25
3 | I1F | 1.82
4 | F19K | 1.77
5 | V3N | 1.85
6 | R22P | 1.68
7 | V5D | 1.1
8 | V5N | 1.66
9 | I1Q | 3
10 | I1K | 2.21
11 | S20I | 2.92
12 | H17V | 2.27
13 | V21L | 2.48
14 | F19I | 2.41
15 | H10V | 3.51
16 | H6A | 2.13
17 | H6D | 2.53
18 | H17L | 3.67
19 | S18W | 4.89
20 | P12H | 1.48
21 | V5M | 3.81
22 | I1A | 2.28
23 | F13N | 1.77
24 | T11F | 2.59
25 | V3R | 2.13

Row | Variant | protein stability index
26 | P12G | 4.32
27 | I1M | 1.89
28 | G7I | 2.67
29 | G24H | 1.84
30 | P12R | 3.86
31 | V3Y | 2.43
32 | V5Q | 1.87
33 | V3A | 2.42
34 | R22G | 1.39
35 | F19T | 2.35
36 | I1R | 3.65
37 | R22W | 3.39
38 | H17G | 3.13
39 | P23S | 2.45
40 | N9M | 5.71
41 | F19N | 1.09
42 | F19G | 1.52
43 | L14E | 1.8
44 | V3F | 1.93
45 | P23T | 1.8
46 | V3D | 2.17
47 | V5P | 2.12
48 | G7K | 2.48
49 | M4W | 2.32
50 | F13G | 1.96

Row | Variant | protein stability index
51 | M4A | 1.92
52 | L14H | 2.23
53 | H17T | 1.89
54 | G7E | 2.05
55 | N9C | 1.89
56 | N9Y | 4.19
57 | H10E | 1.94
58 | H16L | 3.83
59 | M4P | 3.2
60 | H17P | 2.38
61 | V5G | 2.89
62 | P12Y | 1.97
63 | G15V | 4.3
64 | V21E | 1.41
65 | H6E | 2.27
66 | R2T | 1.51
67 | I1L | 1.31
68 | H6T | 2.35
69 | M4K | 1.72
70 | I1N | 2.85
71 | V5S | 1.21
72 | S18R | 4.09
73 | H17E | 1.51
74 | H17R | 2.73
75 | M4N | 2.92

Row | Variant | protein stability index
76 | H17K | 2.99
77 | R22S | 2.31
78 | N9E | 3.01
79 | V5T | 1.89
80 | F19H | 1.91
81 | V21S | 1.87
82 | V21A | 1.8
83 | M4G | 1.5
84 | L14Y | 2.42
85 | G7C | 1.7
86 | H6P | 2.34
87 | V5E | 2.64
88 | S20K | 2.98
89 | H6C | 2.51
90 | S18P | 2.79
91 | T11Q | 2.44
92 | S20T | 2.59
93 | F13H | 1.36
94 | P23A | 1.32
95 | F13Y | 2.77
96 | G24D | 2.04
97 | R2N | 2.13
98 | G24I | 2.44
99 | P23W | 1.89
100 | I1W | 2.71

Row | Variant | protein stability index
101 | H6F | 1.91
102 | V3W | 1.6
103 | G24N | 1.56
104 | F19Q | 1.77
105 | V21F | 2.91
106 | G24R | 1.19
107 | V21N | 1.49
108 | R2D | 2.76
109 | G7S | 1.72
110 | R22D | 2.85
111 | H6Q | 3.67
112 | H10L | 3.2
113 | H6K | 3.76
114 | R8E | 2.47
115 | G7T | 1.92
116 | M4D | 1.88
117 | G15Q | 1.54
118 | V3Q | 1.91
119 | V21D | 1.42
120 | S20N | 1.84
121 | R2L | 2.6
122 | R22F | 2.77
123 | F19P | 1.01
124 | S18I | 5.22
125 | R8H | 3.06

Row | Variant | protein stability index
126 | T11Y | 3.8
127 | G24K | 1.16
128 | V5A | 2.48
129 | P23K | 1.44
130 | F13L | 1.19
131 | G15T | 1.88
132 | V21H | 3.02
133 | I1P | 2.61
134 | N9G | 2.67
135 | P12I | 3.72
136 | S18D | 2.01
137 | H16S | 2.26
138 | F13R | 1
139 | H10C | 2.19
140 | I1D | 2.63
141 | V5H | 2.32
142 | I1H | 2.74
143 | H6Y | 2.35
144 | V21R | 2.78
145 | H10M | 2.15
146 | V3K | 3.58

Variants of: B2
Experiment: as above
Conditions: c terminus: a fixed tail appended

Row | Variant | protein stability index
147 | G1A | 4.05
148 | G1C | 3.34
149 | G1D | 4.35
150 | G1E | 4.44
151 | G1F | 2.73
152 | G1H | 4
153 | G1I | 3.52
154 | G1K | 4.17
155 | G1L | 3.89
156 | G1M | 4.35
157 | G1N | 4.13
158 | G1P | 4.15
159 | G1Q | 4.03
160 | G1R | 4.16
161 | G1S | 3.97
162 | G1T | 4.04
163 | G1V | 3.79
164 | G1W | 3.6
165 | G1Y | 2.08
166 | S2A | 4.14
167 | S2C | 3.22
